Reference: patent US20250290928A1, “METHOD, KIT AND DEVICE FOR DETECTING EXTRACELLULAR VESICLES” (priority 2022, published 2025)
Several values for one entry are separate records, joined by “and”; a condition that tells them apart may be missing. Equal entries are not always repeated. No end group written: not given here. *: point of attachment. 5FAM = O=C1OC2(c3ccc(O)cc3Oc3cc(O)ccc32)c2ccc(C(=O)*)cc21; TQ2 = quencher; TQ3 = quencher

Experiments:
Assay type in all cases: biochemical
[1] = biological target: T1, MMP14 in the MDA-MB-231-derived extracellular vesicles (Homo sapiens, UniProt P50281); assay: Digital detection through MMP14 activity of MDA-MB-231-derived extracellular vesicles captured on Tim4-immobilized magnetic particles; conditions: Table 56, MB231 Present, 24 hours at 23° C.
T1 construct: in terms of intact MMP14 with a molecular weight of 70 kDa

[2] = biological target: T2, MMP14 in the A549-derived extracellular vesicles (Homo sapiens, UniProt P50281); assay: Evaluation of MMP14 activity of A549-derived extracellular vesicles with 96-well plate; conditions: reporter 5 μM, 37° C.
T2 construct: host or cells: A549 (purified exosomes)
Procedure: The MMP14 activity was evaluated with a 96-well plate (manufactured by Thermo Fisher Scientific Inc., model number: 137101). A fluorescence intensity was measured with a fluorescence plate reader (Synergy MX, manufactured by BioTek Instruments, Inc.) at […] every 5 min for 1 hour. For measurement wavelengths, an excitation wavelength of 485±20 nm and a fluorescence wavelength of 528±20 nm were used.
With regard to the COLO201-derived extracellular vesicles, the concentration of the solution was set to x1/10, and 3-fold serial dilution was performed to prepare standard samples with three concentrations.
50 μL of the MMP14 detection solution was added to 50 μL of each of the samples, a reaction was performed at 37° C., and MMP14 activity was evaluated.
(§1) The concentration of the solution is 20 μg/mL. […] The concentration of the solution was set to x1, and 10-fold serial dilution was performed to prepare standard samples with five concentrations.
(§2) The concentration of the solution is 10 μg/mL.
Evaluation was performed in the same manner as in Example 1 except that the reaction temperature was set to 23° C. ΔRFU was calculated by subtracting the measured value of the sample for BG measurement from the measured value of each of the samples.

[3] = biological target: T1, MMP14 in the MDA-MB-231-derived extracellular vesicles; assay: Digital detection through MMP14 activity of MDA-MB-231-derived extracellular vesicles captured on anti-CD9/CD63/CD81 antibody-immobilized particles; conditions: for Expected value λ / Number of positives / Positive ratio: 5 h; for Expected value λ (MMP14) / Number of positives (MMP14): Example 33, 30° C., 4 h
Procedure: as §2
For detection of MMP14 activity, 1 mM Custom #2 was diluted with the buffer (4) to prepare a MMP14 detection solution containing 10 μM Custom #2.
The number of the particles was increased 4-fold, and a reaction was allowed to proceed. However, the number and concentration of the particles used to fill the wells are finally the same as those in other Examples.
The concentration of the solution is 10 μg/mL. The solution was subjected to 3-fold serial dilution to prepare standard samples with seven concentrations.
For detection of MMP14 activity, 1 mM Custom #2 and a 100 µM resorufin β-D-galactopyranoside solution were diluted with the buffer (4) to prepare a MMP14 and CD9/CD63/CD81 cocktail detection solution (1) containing 10 μM Custom #2 and 5 μM resorufin β-D-galactopyranoside. In addition, the solution was diluted 2-fold with the buffer (4) to prepare a detection solution (2). Nonfluorescent resorufin β-D-galactopyranoside is degraded by β-galactosidase to produce fluorescent resorufin. In this case, the maximum wavelengths of excitation and fluorescence of resorufin are 570 nm and 585 nm, respectively.
In addition, an antibody-immobilized particle solution was prepared and stored at 4° C. until use, in the same manner as in Example 28 except that Magnosphere MS300/Carboxyl (manufactured by JSR Corporation) (hereinafter abbreviated as “MS300C”) was used as magnetic particles.
For detection of MMP14 activity, 1 mM Custom #2 was diluted with the buffer (4) to prepare a MMP14 detection solution containing 5 μM Custom #2. In addition, 1 mM Custom #2T was diluted with the buffer (4) to prepare a MMP14 detection solution containing 2.5 μM Custom #2T.
An antibody-immobilized particle solution was prepared and stored at 4° C. until use, in the same manner as in Example 28 except that: MS300C was used as magnetic particles; and blocking treatment was performed at 4° C. or room temperature through use of Blockmaster CE210 or CE510 (manufactured by Medical & Biological Laboratories Co., Ltd.) instead of Bead Blocking Buffer (manufactured by Quanterix Corporation).
For detection of MMP14 activity, 1 mM Custom #2 and 1 mM Custom #2T were diluted with the buffer (4) to prepare a MMP14 detection solution containing 5 μM Custom #2 and 2.5 μM Custom #2T serving as the reporter molecules in the same system. […]

[4] = biological target: T2, MMP14 in the A549-derived extracellular vesicles; assay: Digital detection of A549-derived extracellular vesicles through MMP14 activity in wells (Simoa Discs)
Procedure: as §1, §2

[5] = Example 28, 37° C., EV 0 (BG, free of extracellular vesicles)
[6] = Example 28, 37° C., EV 1 a.u. (sample 10 μg/mL)
[7] = Example 31, 4-fold number of particles, 37° C., EV 1 a.u., single image
[8] = Example 31, 37° C., EV 1 a.u., sum of the two images
[9] = Particle MS300C, MB231 Absent, 24 hours of reaction
[10] = Particle MS300C, MB231 Present, 24 hours of reaction
[11] = Particle Simoa, MB231 Absent, 24 hours of reaction
[12] = Particle Simoa, MB231 Present, 24 hours of reaction
[13] = Example 27, 23° C., 5 h, EV 0 (free of extracellular vesicles)
[14] = Example 27, 23° C., 5 h, EV 0.01 a.u.
[15] = Example 27, 23° C., 5 h, EV 0.1 a.u.
[16] = Example 27, reporter 10 μM, 23° C., 5 h, EV 1 a.u. (x1=5 μg/mL)
[17] = Example 21, 37° C., 5 h, BG, EV 0 (free of extracellular vesicles, pseudopositive)
[18] = Example 21, 37° C., 5 h, ΔBG Absent, EV 0.0001 a.u.
[19] = Example 21, 37° C., 5 h, ΔBG Absent, EV 0.001 a.u.
[20] = Example 21, 37° C., 5 h, ΔBG Absent, EV 0.01 a.u.
[21] = Example 21, 37° C., 5 h, ΔBG Absent, EV 0.1 a.u.
[22] = Example 21, 37° C., 5 h, ΔBG Absent, EV 1 a.u. (x1=10 μg/mL)
[23] = Example 21, 37° C., 5 h, ΔBG Present (positives at EV 0 subtracted), EV 1 a.u.
[24] = Example 21, 37° C., 5 h, ΔBG Present, EV 0.0001 a.u.
[25] = Example 21, 37° C., 5 h, ΔBG Present, EV 0.001 a.u.
[26] = Example 21, 37° C., 5 h, ΔBG Present, EV 0.01 a.u.
[27] = Example 21, 37° C., 5 h, ΔBG Present, EV 0.1 a.u.

## [5-FAM]GGPLGLAGGK(TQ2)[OH] (5FAM-GGPLGLAGGK(TQ2)-OH) [Custom #2]
[1]; Particle MS300C
  Particle Number of positives: 1,288
[1]; Particle Simoa
  Particle Number of positives: 1,234
[2]; Example 10, buffer (3)
  fluorescence intensity at the same extracellular vesicle concentration: higher than the fluorescence intensity from Custom #1
[3]; Example 28, 1 μg of protein, 5.0×10^5 particles
  Extracellular vesicle concentration: 8.0×10^4 extracellular vesicles/μg of protein
[3]; [5]
  Expected value λ: 0.000493
  Number of positives: 1
  Positive ratio: 0.000493
[3]; [6]
  Expected value λ: 0.1599
  Number of positives: 338
  Positive ratio: 0.1478
[3]; Example 28, 5 h
  expected value Δλ per particle (value obtained by subtracting BG): 0.1594
[3]; Example 31, 0.5 μg of protein, 2.0×10^6 particles
  Extracellular vesicle concentration: 1.8×10^5 extracellular vesicles/μg of protein
[3]; [7]
  Expected value λ: 0.04458 and 0.04511
  Number of positives: 402 and 410
  Positive ratio: 0.0436 and 0.04411
[3]; [8]
  Expected value λ: 0.04484
  Number of positives: 812
  Positive ratio: 0.04386
[3]; Example 31, 5 h, sum of the two images
  expected value Δλ per particle (value obtained by subtracting BG): 0.04435
[3]; EV 0 (BG)
  Expected value λ (MMP14): 0.00428
  Number of positives (MMP14): 9
[3]; EV X1 (sample 10 μg/mL)
  Expected value λ (MMP14): 0.139
  Number of positives (MMP14): 298
[3]; EV X1/3
  Expected value λ (MMP14): 0.0829
  Number of positives (MMP14): 218
[3]; EV X1/9
  Expected value λ (MMP14): 0.0569
  Number of positives (MMP14): 162
[3]; EV X1/27
  Expected value λ (MMP14): 0.0315
  Number of positives (MMP14): 78
[3]; EV X1/81
  Expected value λ (MMP14): 0.0118
  Number of positives (MMP14): 19
[3]; EV X1/243
  Expected value λ (MMP14): 0.0108
  Number of positives (MMP14): 20
[3]; EV X1/729
  Expected value λ (MMP14): 0.0120
  Number of positives (MMP14): 22
[3]; Example 33, concentration [a.u.] of x1, multiplex with resorufin β-D-galactopyranoside
  extracellular vesicles detected with MMP14 present in wells (particles) containing extracellular vesicles detected with at least any one of CD9, CD63, and CD81: 99.7%
[3]; [9]
  Extracellular vesicle concentration: 0.0113 ×10^5/μg of protein
  Particle Expected value λ: 0.00226
[3]; [10]
  Extracellular vesicle concentration: 1.4495 ×10^5/μg of protein
  Particle Expected value λ: 0.2899
[3]; [11]
  Extracellular vesicle concentration: 0.0061 ×10^5/μg of protein
  Particle Expected value λ: 0.00122
[3]; [12]
  Extracellular vesicle concentration: 1.5232 ×10^5/μg of protein
  Particle Expected value λ: 0.3046
[4]; Example 27
  Extracellular vesicle concentration: 1.1×10^9 /μg of protein
[4]; [13]
  Expected value λ: 0.000023
  Number of positives: 2
  Positive ratio: 0.000023
[4]; [14]
  Expected value λ: 0.004117
  Number of positives: 357
  Positive ratio: 0.004109
[4]; [15]
  Expected value λ: 0.03235
  Number of positives: 2,766
  Positive ratio: 0.03184
[4]; Example 27, 5 h
  λ at x1 in the approximation of FIG. 58: 0.2767
[4]; Example 27, reaction solution 5 μg of protein/mL, 50 fL
  concentration of the extracellular vesicles that can be detected based on the MMP14 activity: 5.5e+09 mL⁻¹
[4]; [16]
  Expected value λ: 0.2767
  Number of positives: 20,982
  Positive ratio: 0.2417

## [5-FAM]GRIGFLRTAK(TQ2)[OH] (5FAM-GRIGFLRTAK(TQ2)-OH) [Custom #1]
[2]; Example 21, buffer (4)
  extracellular vesicle concentration at which MMP14 activity was able to be detected with a 96-well plate: ≥ 10 µg/mL
[4]; [17]
  Expected value λ: 0.000656
  Number of positives: 38
  Positive ratio: 0.000656
[4]; [18]
  Expected value λ: 0.000725
  Number of positives: 42
  Positive ratio: 0.000724
[4]; [19]
  Expected value λ: 0.000985
  Number of positives: 57
  Positive ratio: 0.000984
[4]; [20]
  Expected value λ: 0.00207
  Number of positives: 119
  Positive ratio: 0.00206
[4]; [21]
  Expected value λ: 0.0137
  Number of positives: 789
  Positive ratio: 0.0136
[4]; [22]
  Expected value λ: 0.149
  Number of positives: 8,036
  Positive ratio: 0.139
[4]; [23]
  Expected value λ: 0.148
  Number of positives: 7,998
  Positive ratio: 0.138
[4]; [24]
  Expected value λ: 0.000069
  Number of positives: 4
  Positive ratio: 0.000069
[4]; [25]
  Expected value λ: 0.000328
  Number of positives: 19
  Positive ratio: 0.000328
[4]; [26]
  Expected value λ: 0.00141
  Number of positives: 81
  Positive ratio: 0.0014
[4]; [27]
  Expected value λ: 0.013
  Number of positives: 751
  Positive ratio: 0.0129
[4]; Example 21, 5 h
  λ at x1 in an approximation with BG correction: 0.120
  λ at x1 in an approximation without BG correction: 0.102
[4]; Example 21, Simoa Discs, buffer (4), reporter 5 μM, 37° C., 5 h
  extracellular vesicle concentration at which MMP14 activity was able to be detected in the microcompartment: ≥ 100 ng/mL
[4]; Example 21, with BG correction
  Extracellular vesicle concentration: 2.4e+09 mL⁻¹
  extracellular vesicles in which MMP14 activity can be detected, contained in 1 μL of the extracellular vesicles (50 μg of protein in 50 μL of PBS): 2.4×10^8
[4]; Example 21, without BG correction
  Extracellular vesicle concentration: 2.0×10^8 /μg of protein
[4]; Example 21, without BG correction, reaction solution 10 μg of protein/mL, 50 fL
  Extracellular vesicle concentration: 2e+09 mL⁻¹

## TAMRA-GGPLGLAGGK(TQ3) ({TAMRA}-GGPLGLAGGK(TQ3)) [Custom #2T]
[1]; Particle MS300C
  Particle Number of positives: 1,460
[1]; Particle Simoa
  Particle Number of positives: 359
[3]; [9]
  Extracellular vesicle concentration: 0.01 ×10^5/μg of protein
  Particle Expected value λ: 0.002
[3]; [10]
  Extracellular vesicle concentration: 1.4687 ×10^5/μg of protein
  Particle Expected value λ: 0.2937
[3]; [11]
  Extracellular vesicle concentration: 0.0098 ×10^5/μg of protein
  Particle Expected value λ: 0.00196
[3]; [12]
  Extracellular vesicle concentration: 0.3874 ×10^5/μg of protein
  Particle Expected value λ: 0.07748
